Sequences and labels used below:
B1: DVD495 (DLL4/VEGF DVD-Ig) (bispecific antibody, human IgG1)
VH: EVQLQQSGPELVKPGASVKMSCKASGYTFTSYVINWVKQKPGQGLEWIGLINPYNDGTKYNEKFKVKATLTSDKSSSTAYMELSSLTSEDSAVYYCASYYYGSRYYFDYWGQGTTLTVSSASTKGPSVFPLAPEVQLVESGGGLVQPGGSLRLSCAASGFTISDYWIHWVRQAPGKGLEWVAGITPAGGYTYYADSVKGRFTISADTSKNTAYLQMNSLRAEDTAVYYCARFVFFLPYAMDYWGQGTLVTVSS
VL: DIQMTQSSSYLSVSLGGRVTITCKASDHINNWLAWYQQKPGNAPRLLISGATSLETGVPSRFSGSGSGKDYTLSITSLQTEDVATYYCQQYWSIPLTFGAGTKLELKRTVAAPSVFIFPPDIQMTQSPSSLSASVGDRVTITCRASQDVSTAVAWYQQKPGKAPKLLIYSASFLYSGVPSRFSGSGSGTDFTLTISSLQPEDFATYYCQQSYTTPPTFGQGTKVEIKR
notes: HC linker long, LC linker long; also called DVD495H; DVD495L
B2: DVD519 (DLL4/VEGF DVD-Ig) (bispecific antibody, human IgG1)
VH: EVQLQQSGPELEKPGASVKISCKASGYSFTGYNMNWVKQSNGKSLEWIGNIDPYFGGTNYNQKFKGKATLTVDKSSSTAYMQLKSLTSEDSAVYYCARNYDYDGGCFDYWGQGTTLTVSSASTKGPSVFPLAPEVQLVESGGGLVQPGGSLRLSCAASGFTISDYWIHWVRQAPGKGLEWVAGITPAGGYTYYADSVKGRFTISADTSKNTAYLQMNSLRAEDTAVYYCARFVFFLPYAMDYWGQGTLVTVSS
VL: QAVVTQESALTTSPGETVTLTCRSSTGAVTTSNYANWVQEKPDHLFTGLIGGTNNRAPGVPARFSGSLIGDKAALTITGAQTEDEAIYFCALWYSNHWVFGGGTKLTVLGQPKAAPSVTLFPPDIQMTQSPSSLSASVGDRVTITCRASQDVSTAVAWYQQKPGKAPKLLIYSASFLYSGVPSRFSGSGSGTDFTLTISSLQPEDFATYYCQQSYTTPPTFGQGTKVEIKR
notes: HC linker long, LC linker long; also called DVD519H; DVD519L
B3: DVD471 (DLL4/VEGF DVD-Ig) (bispecific antibody, human IgG1)
VH: EVQLVESGGGLVQPGGSLRLSCAASGFTFTDNWISWVRQAPGKGLEWVGYISPNSGFTYYADSVKGRFTISADTSKNTAYLQMNSLRAEDTAVYYCARDNFGGYFDYWGQGTLVTVSSASTKGPSVFPLAPEVQLVESGGGLVQPGGSLRLSCAASGFTISDYWIHWVRQAPGKGLEWVAGITPAGGYTYYADSVKGRFTISADTSKNTAYLQMNSLRAEDTAVYYCARFVFFLPYAMDYWGQGTLVTVSS
VL: DIQMTQSPSSLSASVGDRVTITCRASQDVSTAVAWYQQKPGKAPKLLIYSASFLYSGVPSRFSGSGSGTDFTLTISSLQPEDFATTYYCQQSYTGTVTFGQGTKVEIKRTVAAPSVFIFPPDIQMTQSPSSLSASVGDRVTITCRASQDVSTAVAWYQQKPGKAPKLLIYSASFLYSGVPSRFSGSGSGTDFTLTISSLQPEDFATYYCQQSYTTPPTFGQGTKVEIKR
notes: HC linker long, LC linker long; also called DVD471H; DVD471L
B4: DVD449 (DLL4/VEGF DVD-Ig) (bispecific antibody, human IgG1)
VH: QVQLVQSGAEVKKPGASVKISCKASGYSFTAYYIHWVKQAPGQGLEWIGYISSYNGATNYNQKFKGRVTFTTDTSTSTAYMELRSLRSDDTAVYYCARDYDYDVGMDYWGQGTLVTVSSASTKGPSVFPLAPEVQLVESGGGLVQPGGSLRLSCAASGFTISDYWIHWVRQAPGKGLEWVAGITPAGGYTYYADSVKGRFTISADTSKNTAYLQMNSLRAEDTAVYYCARFVFFLPYAMDYWGQGTLVTVSS
VL: DIVMTQSPDSLAVSLGERATISCRASESVDNYGISFMKWFQQKPGQPPKLLIYAASNQGSGVPDRFSGSGSGTDFTLTISSLQAEDVAVYYCQQSKEVPWTFGGGTKVEIKRTVAAPSVFIFPPDIQMTQSPSSLSASVGDRVTITCRASQDVSTAVAWYQQKPGKAPKLLIYSASFLYSGVPSRFSGSGSGTDFTLTISSLQPEDFATYYCQQSYTTPPTFGQGTKVEIKR
notes: HC linker long, LC linker long; also called DVD449H; DVD449L
B5: DVD444 (VEGF/DLL4 DVD-Ig) (bispecific antibody, human IgG1)
VH: EVQLVESGGGLVQPGGSLRLSCAASGFTISDYWIHWVRQAPGKGLEWVAGITPAGGYTYYADSVKGRFTISADTSKNTAYLQMNSLRAEDTAVYYCARFVFFLPYAMDYWGQGTLVTVSSASTKGPQVQLVQSGAEVKKPGASVKISCKASGYSFTAYYIHWVKQAPGQGLEWIGYISSYNGATNYNQKFKGRVTFTTDTSTSTAYMELRSLRSDDTAVYYCARDYDYDVGMDYWGQGTLVTVSS
VL: DIQMTQSPSSLSASVGDRVTITCRASQDVSTAVAWYQQKPGKAPKLLIYSASFLYSGVPSRFSGSGSGTDFTLTISSLQPEDFATYYCQQSYTTPPTFGQGTKVEIKRTVAAPDIVMTQSPDSLAVSLGERATISCRASESVDNYGISFMKWFQQKPGQPPKLLIYAASNQGSGVPDRFSGSGSGTDFTLTISSLQAEDVAVYYCQQSKEVPWTFGGGTKVEIKR
notes: HC linker short, LC linker short; also called DVD444H; DVD444L
B6: DVD466 (VEGF/DLL4 DVD-Ig) (bispecific antibody, human IgG1)
VH: EVQLVESGGGLVQPGGSLRLSCAASGFTISDYWIHWVRQAPGKGLEWVAGITPAGGYTYYADSVKGRFTISADTSKNTAYLQMNSLRAEDTAVYYCARFVFFLPYAMDYWGQGTLVTVSSASTKGPEVQLVESGGGLVQPGGSLRLSCAASGFTFTDNWISWVRQAPGKGLEWVGYISPNSGFTYYADSVKGRFTISADTSKNTAYLQMNSLRAEDTAVYYCARDNFGGYFDYWGQGTLVTVSS
VL: DIQMTQSPSSLSASVGDRVTITCRASQDVSTAVAWYQQKPGKAPKLLIYSASFLYSGVPSRFSGSGSGTDFTLTISSLQPEDFATYYCQQSYTTPPTFGQGTKVEIKRTVAAPDIQMTQSPSSLSASVGDRVTITCRASQDVSTAVAWYQQKPGKAPKLLIYSASFLYSGVPSRFSGSGSGTDFTLTISSLQPEDFATTYYCQQSYTGTVTFGQGTKVEIKR
notes: HC linker short, LC linker short; also called DVD466H; DVD466L
B7: DVD514 (VEGF/DLL4 DVD-Ig) (bispecific antibody, human IgG1)
VH: EVQLVESGGGLVQPGGSLRLSCAASGFTISDYWIHWVRQAPGKGLEWVAGITPAGGYTYYADSVKGRFTISADTSKNTAYLQMNSLRAEDTAVYYCARFVFFLPYAMDYWGQGTLVTVSSASTKGPEVQLQQSGPELEKPGASVKISCKASGYSFTGYNMNWVKQSNGKSLEWIGNIDPYFGGTNYNQKFKGKATLTVDKSSSTAYMQLKSLTSEDSAVYYCARNYDYDGGCFDYWGQGTTLTVSS
VL: DIQMTQSPSSLSASVGDRVTITCRASQDVSTAVAWYQQKPGKAPKLLIYSASFLYSGVPSRFSGSGSGTDFTLTISSLQPEDFATYYCQQSYTTPPTFGQGTKVEIKRTVAAPQAVVTQESALTTSPGETVTLTCRSSTGAVTTSNYANWVQEKPDHLFTGLIGGTNNRAPGVPARFSGSLIGDKAALTITGAQTEDEAIYFCALWYSNHWVFGGGTKLTVLG
notes: HC linker short, LC linker short; also called DVD514H; DVD514L
B8: DVD490 (VEGF/DLL4 DVD-Ig) (bispecific antibody, human IgG1)
VH: EVQLVESGGGLVQPGGSLRLSCAASGFTISDYWIHWVRQAPGKGLEWVAGITPAGGYTYYADSVKGRFTISADTSKNTAYLQMNSLRAEDTAVYYCARFVFFLPYAMDYWGQGTLVTVSSASTKGPEVQLQQSGPELVKPGASVKMSCKASGYTFTSYVINWVKQKPGQGLEWIGLINPYNDGTKYNEKFKVKATLTSDKSSSTAYMELSSLTSEDSAVYYCASYYYGSRYYFDYWGQGTTLTVSS
VL: DIQMTQSPSSLSASVGDRVTITCRASQDVSTAVAWYQQKPGKAPKLLIYSASFLYSGVPSRFSGSGSGTDFTLTISSLQPEDFATYYCQQSYTTPPTFGQGTKVEIKRTVAAPDIQMTQSSSYLSVSLGGRVTITCKASDHINNWLAWYQQKPGNAPRLLISGATSLETGVPSRFSGSGSGKDYTLSITSLQTEDVATYYCQQYWSIPLTFGAGTKLELKR
notes: HC linker short, LC linker short; also called DVD490H; DVD490L
B9: AB072 (anti-DLL4 (seq. 3) parent antibody) (antibody, human IgG1, V domains shown)
VH: EVQLQQSGPELVKPGASVKMSCKASGYTFTSYVINWVKQKPGQGLEWIGLINPYNDGTKYNEKFKVKATLTSDKSSSTAYMELSSLTSEDSAVYYCASYYYGSRYYFDYWGQGTTLTVSS
VL: DIQMTQSSSYLSVSLGGRVTITCKASDHINNWLAWYQQKPGNAPRLLISGATSLETGVPSRFSGSGSGKDYTLSITSLQTEDVATYYCQQYWSIPLTFGAGTKLELKR
notes: also called AB072VH; AB072VL
B10: AB073 (anti-DLL4 (seq. 4) parent antibody) (antibody, human IgG1, V domains shown)
VH: EVQLQQSGPELEKPGASVKISCKASGYSFTGYNMNWVKQSNGKSLEWIGNIDPYFGGTNYNQKFKGKATLTVDKSSSTAYMQLKSLTSEDSAVYYCARNYDYDGGCFDYWGQGTTLTVSS
VL: QAVVTQESALTTSPGETVTLTCRSSTGAVTTSNYANWVQEKPDHLFTGLIGGTNNRAPGVPARFSGSLIGDKAALTITGAQTEDEAIYFCALWYSNHWVFGGGTKLTVLG
notes: also called AB073VH; AB073VL
B11: DVD450 (VEGF/DLL4 DVD-Ig) (bispecific antibody, human IgG1)
VH: EVQLVESGGGLVQPGGSLRLSCAASGFTISDYWIHWVRQAPGKGLEWVAGITPAGGYTYYADSVKGRFTISADTSKNTAYLQMNSLRAEDTAVYYCARFVFFLPYAMDYWGQGTLVTVSSASTKGPSVFPLAPQVQLVQSGAEVKKPGASVKISCKASGYSFTAYYIHWVKQAPGQGLEWIGYISSYNGATNYNQKFKGRVTFTTDTSTSTAYMELRSLRSDDTAVYYCARDYDYDVGMDYWGQGTLVTVSS
VL: DIQMTQSPSSLSASVGDRVTITCRASQDVSTAVAWYQQKPGKAPKLLIYSASFLYSGVPSRFSGSGSGTDFTLTISSLQPEDFATYYCQQSYTTPPTFGQGTKVEIKRTVAAPSVFIFPPDIVMTQSPDSLAVSLGERATISCRASESVDNYGISFMKWFQQKPGQPPKLLIYAASNQGSGVPDRFSGSGSGTDFTLTISSLQAEDVAVYYCQQSKEVPWTFGGGTKVEIKR
notes: HC linker long, LC linker long; also called DVD450H; DVD450L
B12: DVD472 (VEGF/DLL4 DVD-Ig) (bispecific antibody, human IgG1)
VH: EVQLVESGGGLVQPGGSLRLSCAASGFTISDYWIHWVRQAPGKGLEWVAGITPAGGYTYYADSVKGRFTISADTSKNTAYLQMNSLRAEDTAVYYCARFVFFLPYAMDYWGQGTLVTVSSASTKGPSVFPLAPEVQLVESGGGLVQPGGSLRLSCAASGFTFTDNWISWVRQAPGKGLEWVGYISPNSGFTYYADSVKGRFTISADTSKNTAYLQMNSLRAEDTAVYYCARDNFGGYFDYWGQGTLVTVSS
VL: DIQMTQSPSSLSASVGDRVTITCRASQDVSTAVAWYQQKPGKAPKLLIYSASFLYSGVPSRFSGSGSGTDFTLTISSLQPEDFATYYCQQSYTTPPTFGQGTKVEIKRTVAAPSVFIFPPDIQMTQSPSSLSASVGDRVTITCRASQDVSTAVAWYQQKPGKAPKLLIYSASFLYSGVPSRFSGSGSGTDFTLTISSLQPEDFATTYYCQQSYTGTVTFGQGTKVEIKR
notes: HC linker long, LC linker long; also called DVD472H; DVD472L

Values joined by “and” are separate entries in the source; they are usually repeats but may differ in a detail not shown here. Identical values can stand only once.

In the first assay the target is T1, DLL4 (DLL4 ECD/His tag, R&D Systems 1506-D4-050) (UniProt Q9NR61 27-529).
T1 construct: extracellular domain; not shown: His tag
Briefly: Direct bind ELISA on DLL4; DLL4 domain N-term., HC long, LC long. (In general: ELISA stands for enzyme-linked immunosorbent assay.)
In general, EC50 refers to the concentration needed to bring the measured effect to its halfway point. A high value points to weaker potency. In turn, B1 gave an EC50 of 0.33 nM.
The same measure, in the same setting: the same measure for B2: 1.53 nM; for B3: 0.89 nM; for B4: 0.36 nM.

Another assay addresses T1, DLL4 (DLL4 ECD/His tag, R&D Systems …). Briefly: Direct bind ELISA on DLL4; DLL4 domain C-term., HC short, LC short.
B5: the half-maximal effective concentration (EC50) turned out to be 30.5 nM.
On the same count and under the same terms, the same measure for B6: 19.8 nM.
The same measure, in the same setting: the same measure for B7: 21.1 nM.
B8 gave an EC50 of 9.27 nM.

Another assay shares this target. Briefly: Direct bind ELISA on DLL4; reference antibody.
Take B9: the EC50 was 63.4 nM and 63.2 nM.
Regarding B10, the EC50 is 0.22 nM and 0.21 nM.

Another assay has the same target. Nature of the assay: Direct bind ELISA on DLL4; DLL4 domain C-term., HC long, LC long.
Regarding B11, the EC50 is 1.99 nM.
Same read-out and setting: the same measure for B12: 2.78 nM.

The values above are taken from US20100260668A1 (published 2010).
